The numbers were not newly measured in PMC5123080, which cites them from elsewhere.

In this data set the target is UNC5B ECD (Mus musculus) (UniProt Q8K1S3).
UniProt Q8K1S3, sequence (Q8K1S3 27-377): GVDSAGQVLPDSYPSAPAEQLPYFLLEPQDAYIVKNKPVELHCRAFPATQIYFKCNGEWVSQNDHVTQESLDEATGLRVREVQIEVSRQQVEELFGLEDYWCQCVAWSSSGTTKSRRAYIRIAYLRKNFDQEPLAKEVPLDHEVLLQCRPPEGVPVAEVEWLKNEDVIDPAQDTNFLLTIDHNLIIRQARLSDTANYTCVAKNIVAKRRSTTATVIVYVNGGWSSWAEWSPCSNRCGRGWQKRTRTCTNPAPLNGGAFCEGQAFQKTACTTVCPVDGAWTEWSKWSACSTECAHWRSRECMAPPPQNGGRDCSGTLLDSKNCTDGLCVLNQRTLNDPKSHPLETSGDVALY

Regarding Robo4 ECD (from UniProt Q8C310), the dissociation constant Kd (as a rule, the equilibrium constant for the complex coming apart) is 12 nM.
